Assay results as given in the supplement of paper PMC9112550, “Optimization of the antimicrobial peptide Bac7 by deep mutational scanning” (BMC Biology, 2022).

Test system: Escherichia coli TOP10
Assay: shrunken log2 fold change of peptide-encoding DNA abundance (4.5 h post-induction vs induction); higher = less antimicrobial activity (less host growth inhibition)
Conditions: time post-induction: 4.5 h; library: site-saturation at positions 5, 18, 19, 20
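Also: peptides expressed intracellularly from a pBAD plasmid library in pooled LB shake-flask culture, induced with 0.3% L-arabinose, DNA abundance read by NGS, three biological replicates, DESeq2 with apeglm shrinkage.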

Sequence | shrunken log2 fold change
RRIRARPPRLPRPRPRPDGYPRP | 0.647
RRIRARPPRLPRPRPRPDLCPRP | 0.393
RRIRARPPRLPRPRPRPDMHPRP | -0.00915
RRIRARPPRLPRPRPRPDNAPRP | 0.311
RRIRARPPRLPRPRPRPDQFPRP | 0.389
RRIRARPPRLPRPRPRPDRPPRP | 0.448
RRIRARPPRLPRPRPRPDTNPRP | -0.0188
RRIRARPPRLPRPRPRPDVFPRP | 0.176
RRIRARPPRLPRPRPRPDVLPRP | 0.579
RRIRARPPRLPRPRPRPDVMPRP | 0.0669
RRIRARPPRLPRPRPRPDWIPRP | -0.0382
RRIRARPPRLPRPRPRPDWLPRP | 0.432
RRIRARPPRLPRPRPRPDWVPRP | 0.517
RRIRARPPRLPRPRPRPDYCPRP | -0.17
RRIRARPPRLPRPRPRPDYDPRP | 0.0454
RRIRARPPRLPRPRPRPEDPPRP | 0.823
RRIRARPPRLPRPRPRPEENPRP | 1.26
RRIRARPPRLPRPRPRPEERPRP | 1.11
RRIRARPPRLPRPRPRPEEWPRP | 0.0407
RRIRARPPRLPRPRPRPEFDPRP | 1.44
RRIRARPPRLPRPRPRPEFEPRP | 0.75
RRIRARPPRLPRPRPRPEGAPRP | 1.37
RRIRARPPRLPRPRPRPEGDPRP | 1.39
RRIRARPPRLPRPRPRPEGHPRP | 0.223
RRIRARPPRLPRPRPRPEGKPRP | 0.702
RRIRARPPRLPRPRPRPEIEPRP | 0.719
RRIRARPPRLPRPRPRPEINPRP | 0.96
RRIRARPPRLPRPRPRPEIVPRP | 0.553

Sequence | shrunken log2 fold change
RRIRARPPRLPRPRPRPEKHPRP | 0.0578
RRIRARPPRLPRPRPRPELCPRP | 0.92
RRIRARPPRLPRPRPRPELRPRP | 1.14
RRIRARPPRLPRPRPRPENCPRP | 0.177
RRIRARPPRLPRPRPRPENPPRP | 1.14
RRIRARPPRLPRPRPRPEPHPRP | 0.374
RRIRARPPRLPRPRPRPEPQPRP | 0.862
RRIRARPPRLPRPRPRPEPTPRP | 0.832
RRIRARPPRLPRPRPRPEPWPRP | 0.742
RRIRARPPRLPRPRPRPEQWPRP | 0.0858
RRIRARPPRLPRPRPRPERFPRP | 0.0769
RRIRARPPRLPRPRPRPERRPRP | 0.77
RRIRARPPRLPRPRPRPESNPRP | 0.553
RRIRARPPRLPRPRPRPESSPRP | 2.39
RRIRARPPRLPRPRPRPEVFPRP | 0.401
RRIRARPPRLPRPRPRPEVHPRP | 3.57
RRIRARPPRLPRPRPRPEVVPRP | 1.32
RRIRARPPRLPRPRPRPEWQPRP | 0.105
RRIRARPPRLPRPRPRPEYLPRP | -0.00441
RRIRARPPRLPRPRPRPEYQPRP | 0.118
RRIRARPPRLPRPRPRPFCCPRP | 0.206
RRIRARPPRLPRPRPRPFDHPRP | -0.394
RRIRARPPRLPRPRPRPFDYPRP | -0.245
RRIRARPPRLPRPRPRPFEMPRP | 0.135
RRIRARPPRLPRPRPRPFHYPRP | -0.371
RRIRARPPRLPRPRPRPFIGPRP | -0.457
RRIRARPPRLPRPRPRPFIIPRP | -0.264
